# Patent publication US11168306B2, “Phage wrapping” (priority 2014, dated 2021)
# “Also recorded” adds a separate entry of the source.
# B1: P100NSP-2: PEG100, non-specific attachment to ligand 2; bioconjugated to phage wrapped with K14-Cys (conjugate)
# peptide 1: SECVEVFQNSCDW
# peptide 2: KKKKKKKKKKKKKKC
# chain: AEGDDPAKAAFNSLQASATEYIGYAWAMVVVIVGATIGIKLFKKFTSKAS
# B2: P100SP-2: PEG100, specific attachment to ligand 2 (conjugate)
# peptide 1: SECVEVFQNSCDW
# peptide 2: KKKKKKKKKKKKKKC
# chain: B1 chain
# B3: P100NSP-P4-2+P100NSP-P4-1: dual PEGylated ligand combination with PEG4 linker, non-specific attachment, on phage (conjugate)
# peptide 1: SECVEVFQNSCDW
# peptide 2: CALCEFLG
# peptide 3: KKKKKKKKKKKKKKC
# chain: B1 chain
# B4: P100SP-P4-2+P100SP-P4-1: dual PEGylated ligand combination with PEG4 linker, specific attachment, 2:1 ratio, on phage (conjugate)
# peptide 1: SECVEVFQNSCDW
# peptide 2: CALCEFLG
# peptide 3: KKKKKKKKKKKKKKC
# chain: B1 chain
# B5: 2:1 mixture of P100NSP-2 and P100NSP-1: dual PEGylated ligand combination wrapped on phage (conjugate)
# peptide 1: SECVEVFQNSCDW
# peptide 2: CALCEFLG
# peptide 3: KKKKKKKKKKKKKKC
# chain: B1 chain
# B6: P100SP-P4-2: PEG100, specific attachment, PEG4 linker, ligand 2 (conjugate)
# peptide 1: SECVEVFQNSCDW
# peptide 2: KKKKKKKKKKKKKKC
# chain: B1 chain
# Molecular target: T1, PSMA on LNCaP cells (Homo sapiens, UniProt Q04609)
# T1 construct: specific recognition of PSMA on the surface of LNCaP cells; endogenous in cells; host or cells: LNCaP (also LNCaP CSS); glutaraldehyde-fixed on the plate
# Assay: Cell-based phage ELISA, recognition of cell surface PSMA
# Conditions: PEGylated ligands on phage wrapped with K14-Cys
# Experimental: The cell-based ELISA was performed as previously described by Watanabe et. al. with several modifications. See e.g., Watanabe, K.; et al., Clin. Biochem. 2001, 34, 291-295. Cells were detached with Trypsin-EDTA, resuspended in PBS, and then collected by centrifuging at 1200 rpm for 5 min. The cells were further washed with PBS and then concentrated as in the previous step. The concentration of the cells was adjusted to 4.5×10^6 cells/mL in PBS using a hemocytometer, and 100 μL was aliquoted to specific wells of a 96-well microtiter (Nunc Maxisorp). Next, 50 μL of 0.15% of glutaraldehyde in PBS was added to the wells at 4° C., and the solution was gently mixed by pipetting. The ELISA plate was then centrifuged at 1200 rpm for 10 min at 4° C., followed by overnight incubation at 4° C. The cell solution was gently removed, and the wells were blocked with 200 μL/well of blocking buffer containing 100 mM glycine, 1% gelatin and 0.1% w/v BSA (bovine serum albumin) in PBS. The plate was incubated overnight (˜20-22 h) at room temperature.
# Separately, phage wrapped with PEG and PEGylated ligands were prepared. Phage (10 nM in 100 μL) and 1 μL of K14-alkyne (525 μM in water) were thoroughly mixed by pipetting ˜25 times. For phage wrapped with PEGylated ligands, phage were mixed with 0.75 μL of K14-Cys (525 μM in water). For mixed wrapping on phage surface, 0.5 μL of K14-alkyne was pre-mixed with 0.75 μL of K14-Cys, and then mixed with 100 μL of 10 nM phage. The solution was shaken at room temperature for 15 min on an orbital shaker. Next, 2 μL of PEGylated ligand (625 μM in water) was added to the appropriate wells. For the dual ligand combinations, the PEGylated ligands were pre-mixed in the desired ratio (2:1 for example), and then 2 μL of the mixture was added to the appropriate wells. The solutions were gently mixed by pipetting, and incubated overnight at 4° C.
# Next, the click reaction was performed, as previously described, but with the following modifications.^1,2 Triethylammonium acetate was added to a final concentration of 50 mM, followed by the addition of 1.5 μL of 1 mM azide-functionalized PEG. The solutions were mixed by pipetting. Next, ascorbic acid was added to a final concentration of 1 mM and the solutions were mixed by gently pipetting. Next, copper sulfate was added to a final concentration of 1.5 mM, followed by pipetting to mix the solutions. Water was added to the other wells to maintain a consistent phage concentration. The plate was incubated at room temperature for 30 min.
# The wells on the ELISA plate were then incubated with the phage samples. The blocking buffer was removed and the wells were gently washed two times with PBS. Next, the phage solution was added to the respective wells and incubated for 45 min. The phage solution was removed, and the wells were washed three times with 300 μL/well of wash buffer PT (0.05% TWEEN-20 in PBS), once with PBS, and then incubated with horseradish-peroxidase-conjugated anti-M13 antibody (100 μL/well, 1:5000 dilution in PBS) for 40 min. The wells were washed three times with PT and once with PBS. The plate was then developed by incubating with HRP substrate solution (100 μL/well; 1 mg/mL o-phenylenediamine dihydrochloride and 0.02% w/v H2O2) in citric acid buffer (50 mM citric acid, 50 mM Na2HPO4, pH 5.0). The HRP activity was measured spectrophotometrically at 450 nm using a microtiter plate reader (Bio-Tek). The absorbance at 630 nm was subtracted from the absorbance at 450 nm to eliminate background.
# T1 sequence (Q04609 whole entry): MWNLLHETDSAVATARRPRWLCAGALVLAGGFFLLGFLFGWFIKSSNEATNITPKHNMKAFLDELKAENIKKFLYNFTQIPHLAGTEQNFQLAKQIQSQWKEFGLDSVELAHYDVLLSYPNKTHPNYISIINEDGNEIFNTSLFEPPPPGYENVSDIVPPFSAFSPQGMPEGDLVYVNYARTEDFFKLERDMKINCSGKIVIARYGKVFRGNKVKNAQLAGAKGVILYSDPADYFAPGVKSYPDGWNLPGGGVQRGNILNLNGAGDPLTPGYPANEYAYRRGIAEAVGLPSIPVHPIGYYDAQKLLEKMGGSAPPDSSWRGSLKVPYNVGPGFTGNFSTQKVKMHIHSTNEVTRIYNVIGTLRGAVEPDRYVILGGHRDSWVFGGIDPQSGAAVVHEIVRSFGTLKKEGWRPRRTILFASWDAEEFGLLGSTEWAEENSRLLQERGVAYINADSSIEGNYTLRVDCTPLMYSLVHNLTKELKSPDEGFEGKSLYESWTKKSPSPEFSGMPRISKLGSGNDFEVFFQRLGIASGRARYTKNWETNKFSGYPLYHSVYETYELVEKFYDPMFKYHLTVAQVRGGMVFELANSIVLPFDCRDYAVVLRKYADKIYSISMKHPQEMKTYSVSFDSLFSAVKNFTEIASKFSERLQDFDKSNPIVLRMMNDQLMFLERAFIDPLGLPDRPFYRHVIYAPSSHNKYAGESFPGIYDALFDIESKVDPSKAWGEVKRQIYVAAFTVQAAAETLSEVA
row,Molecule,relative binding affinity for cell surface PSMA on LNCaP cells
1,B1,higher affinity for LNCaP cells compared to P100NSP-1
2,B2,higher binding affinity for cell surface PSMA than P100NSP-2
3,B3,drop in affinity; also recorded: affinity equivalent to P100NSP-P4-2
4,B4,significant increase in binding affinity
5,B5,maximize the recognition of PSMA on LNCaP cells
6,B6,most effective PEGylated ligand for recognition of PSMA on the cell surface

# Same assay, conditions: PEGylated ligands on phage wrapped with K14-Cys; listed as P100NSP-2+P100NSP-1
row,Molecule,relative binding affinity for cell surface PSMA on LNCaP cells
1,B5,modest improvement
